Data on 15 molecules can be found in patent publication US20250154283A1 (published 2025).

The test deals with T1, biotinylated human VWF cysteine knot (CK) domain construct (human, biotin on the in vitro biotinylation tag (residue not stated); one N-glycan).
T1 construct: Disulfide-linked homodimer; also called biotinylated human VWF CK domain; human VWF CK domain construct
T1 chain: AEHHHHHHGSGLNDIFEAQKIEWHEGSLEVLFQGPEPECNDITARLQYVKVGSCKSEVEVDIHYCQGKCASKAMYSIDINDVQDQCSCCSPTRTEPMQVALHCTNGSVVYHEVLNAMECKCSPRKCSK
Put plainly: SPR, scFv captured on anti-SV5, pH 7.4. (In SPR one partner is held on a chip, and binding of the other changes the refractive index at the surface.)

B1: Lib4_P2_D1_scFv (scFv, not shown: small tags and cut ends)
scFv: QVQLVQSGAEVKKPGASVKVSCKVSGDTLSNYAIHWVRQAPGKGLEWMGGINPNAGTTIYAQKFQGRVTMTEDTSTDTAYMELSSLKSEDTAVYYCARDSSSWCPVGYYYYYMDVWGKGTTVTVSSSGGSTITSYNVYYTKLSSSGTDIQMTQSPSSVSASVGDRVTITCRASQSIGDFLAWYQQKPGKAPKLLIYDASHLQTGVPSRFSGSGSGTDFTLTISSLQPEDFANYYCQQTSTIPPTFGGGTKVEIK
Turning to B1, the binding result is given as “binds”.

B2: Lib1_P1_A5_scFv (scFv, not shown: small tags and cut ends)
scFv: B1 scFv
Regarding B2, the binding result is given as “binds”.

B3: Lib4_P2_A11_scFv (scFv, not shown: small tags and cut ends)
scFv: QVQLQESGPGLVKPSQTLSLTCTVSGVTFSSYGWSWIRQPPGKGLEWIGYVDTSGSTDYNPSLKSRVTMSVDTSKNQFSLKVNSVTAADTAVYYCARTTYYYDSSGFARGWFDPWGQGTLVTVSSSGGSTITSYNVYYTKLSSSGTEIVMTQSPATLSLSPGERATLSCRASRSISTNLAWYQRKPGQAPRLLIYDTSNRAPGIPARFSGSGSGTDFTLTISSLEPEDFAVYYCLQYDVSPYTFGGGTKVEIK
notes: also called Lib4_P2_All
For the molecule B3, the binding result is “binds”.

B4: Lib6_P3_A8_scFv (scFv, not shown: small tags and cut ends)
scFv: EVQLVQSGAEVKKPGASVKVSCKASGYRFTNYDISWVRQAPGQGLEWMGGINPSSGITIYAQKLQGRGTMTTDPSTSTAYMELRSLRSDDTAVYYCARGAAYGDYLDYWGQGTLVTVSSSGGSTITSYNVYYTKLSSSGTESALTQPASVSGSPGQSITISCTGTNLGEKYVSWYQQHPGKAPKLMIYSTSQRPSGVSNRFSGSKSGNTASLTITGLQAEDEADYYCSSYTASSTPGLVFGGGTKLTVL
In the case of B4, the binding result is “binds”.

B5: 5662_Lib8_scFv (scFv, not shown: small tags and cut ends)
scFv: EVQLVESGGGLVQPGRSLRLSCAASGFNFHNYDMHWVRQAPGKGLEWVSAIDISGQSTDYADSVEGRFTISRDNAKNSLYLQMNSLRAEDTAVYYCAREGWYGGVFDYWGQGTLVTVSSSGGSTITSYNVYYTKLSSSGTDIQMTQSPSSLSASVGDRVTITCRASQDIANWLAWYQQKPGKAPKLLIYGASESGVGVPSRFSGSGSGTDFTLTISSLQPEDVATYYCQQSLTMKTFGGGTKVEIK
On to B5, for which the binding result is given as “binds”.

B6: 7046_Lib8_scFv (scFv, not shown: small tags and cut ends)
scFv: EVQLVESGGGLVQPGRSLRLSCAASGFNFHNYDMHWVRQAPGKGLEWVSAISGSGYTADYADSVEGRFTISRDNAKNSLYLQMNSLRAEDTAVYYCAKSHSSGWSSAFDIWGQGTMVTVSSSGGSTITSYNVYYTKLSSSGTDIQMTQSPSSLSASVGDRVTITCRASQTIGYWLAWYQQKPGKAPKLLIYDATNLATGVPSRFSGSGSGTDFTLTISSLQPEDVATYYCQHYNPYSQVTFGGGTKVEIK
On to B6, for which the binding result was “binds”.

B7: 4675_Lib4_scFv (scFv, not shown: small tags and cut ends)
scFv: QVQLQESGPGLVKPSQTLSLTCTVSGFSLTSHPEGVNWIRQPPGKGLEWIGYIAHSGTTDYNPSLKSRVTMSVDTSKNQFSLKVNSVTAADTAVYYCARAYGDSDAFDIWGQGTMVTVSSSGGSTITSYNVYYTKLSSSGTEIVMTQSPATLSLSPGERATLSCRASQSIGRNLAWYQQKPGQAPRLLIYGASKRVTGIPARFSGSGSGTDFTLTISSLEPEDFAVYYCQQYSTWPTFGGGTKVEIK
On to B7, for which the binding result was “binds”.

B8: Lib4_P2_A10_scFv (scFv, not shown: small tags and cut ends)
scFv: QVQLQESGPGLVKPSQTLSLTCTVSGASLGHQYWSWIRQPPGKGLEWIGYIDTSGSTDYNPSLKSRVTMSVDTSKNQFSLKVNSVTAADTAVYYCARVANYYYYMDVWGKGTTVTVSSSGGSTITSYNVYYTKLSSSGTEIVMTQSPATLSLSPGERATLSCRASQSVSNRLAWYQQKPGQAPRLLIYDASNRATGIPARFSGSGSGTDFTLTISSLEPEDFAVYYCQQYFITPSTFGGGTKVEIK
In the case of B8, the binding result is recorded as “binds”.

B9: 69_Lib8_scFv (scFv, not shown: small tags and cut ends)
scFv: EVQLVESGGGLVQPGRSLRLSCAASAFTFSNYDMHWVRQAPGKGLEWVSAISGSGDTSDYADSVEGRFTISRDNAKNSLYLQMNSLRAEDTAVYYCVRASWYGTFFDYWGQGTLVTVSSSGGSTITSYNVYYTKLSSSGTDIQMTQSPSSLSASVGDRVTITCRASQSVSGWLAWYQQKPGKAPKLLIYGTSTLQSGVPSRFSGSGSGTDFTLTISSLQPEDVATYYCQQSYSAPYTFGGGTKVEIK
For B9, the binding result is recorded as “binds”.

B10: 27_Lib4_scFv (scFv, not shown: small tags and cut ends)
scFv: QVQLQESGPGLVKPSQTLSLTCTVSGASFGDHYWSWIRQPPGKGLEWIGYIDATGSIDYNPSLKSRVTMSVDTSKNQFSLKVNSVTAADTAVYYCARVASYYYYMDVWGKGTTVTVSSSGGSTITSYNVYYTKLSSSGTEIVMTQSPATLSLSPGERATLSCRASQSITGSYLAWYQQKPGQAPRLLIYGASDRAPGIPARFSGSGSGTDFTLTISSLEPEDFAVYYCQQYGSFPYTFGGGTKVEIK
Take B10: the binding result is reported as “binds”.

B11: 76_Lib4_scFv (scFv, not shown: small tags and cut ends)
scFv: QVQLQESGPGLVKPSQTLSLTCTVSGVSISNHYWSWIRQPPGKGLEWIGYIDESGSTDYNPSLKSRVTMSVDTSKNQFSLKVNSVTAADTAVYYCARVSWGYYAMDVWGQGTTVTVSSSGGSTITSYNVYYTKLSSSGTEIVMTQSPATLSLSPGERATLSCRASQGVSGHLAWYQQKPGQAPRLLIYETSKRATGIPARFSGSGSGTDFTLTISSLEPEDFAVYYCQQYNDYPLGFGGGTKVEIK
For B11, the binding result is “binds”.

B12: 1675_Lib1_scFv (scFv, not shown: small tags and cut ends)
scFv: QVQLVQSGAEVKKPGASVKVSCKVSGVTLTSSAISWVRQAPGKGLEWMGGITPIFGTPIYAQKFQGRVTMTEDTSTDTAYMELSSLKSEDTAVYYCATDYGYPFWAFDIWGQGTMVTVSSSGGSTITSYNVYYTKLSSSGTDIQMTQSPSSVSASVGDRVTITCRASQGIYSALAWYQQKPGKAPKLLIYESSKRPSGVPSRFSGSGSGTDFTLTISSLQPEDFANYYCEQYASSPPTFGGGTKVEIK
Turning to B12, the binding result was “binds”.

B13: 15244_Lib8_scFv (scFv, not shown: small tags and cut ends)
scFv: EVQLVESGGGLVQPGRSLRLSCAASGFTFADYDMHWVRQAPGKGLEWVSATSSHGVTTDYADSVEGRFTISRDNAKNSLYLQMNSLRAEDTAVYYCARGAWSGIAARQYIDYWGQGTLVTVSSSGGSTITSYNVYYTKLSSSGTDIQMTQSPSSLSASVGDRVTITCRASQTIGYWLAWYQQKPGKAPKLLIYDASVPESGVPSRFSGSGSGTDFTLTISSLQPEDVATYYCQQSYSYPLTFGGGTKVEIK
Take B13: the binding result is reported as “binds”.

B14: Lib1_P1_F10_scFv (scFv, not shown: small tags and cut ends)
scFv: QVQLVQSGAEVKKPGASVKVSCKVSGYTFSSSGIHWVRQAPGKGLEWMGGIFPNFGTAIYAQKFQGRVTMTEDTSTDTAYMELSSLKSEDTAVYYCARESDFWSGSFTNWGQGTLVTVSSSGGSTITSYNVYYTKLSSSGTDIQMTQSPSSVSASVGDRVTITCRASRSIGNWLAWYQQKPGKAPKLLIYDAFNRASGVPSRFSGSGSGTDFTLTISSLQPEDFANYYCQQSYSTLPRYSFGGGTKVEIK
As to B14, the binding result is “binds”.

B15: 965_Lib4_scFv (scFv, not shown: small tags and cut ends)
scFv: QVQLQESGPGLVKPSQTLSLTCTVSGASFGDNYWSWIRQPPGKGLEWIGYIDTSGSSDYNPSLKSRVTMSVDTSKNQFSLKVNSVTAADTAVYYCARDALGYYYMDVWGKGTTVTVSSSGGSTITSYNVYYTKLSSSGTEIVMTQSPATLSLSPGERATLSCRASQGISGRLAWYQQKPGQAPRLLIYDASARASGIPARFSGSGSGTDFTLTISSLEPEDFAVYYCQQYGTSPYTFGGGTKVEIK
On to B15, for which the binding result is reported as “binds”.
